Target: the molecule itself
Assay: western blot after SDS-PAGE under reducing and non-reducing conditions; isolated specific granules of human neutrophils, blotted with anti-OLFM4 clone #49; 12% polyacrylamide gels

B1: Olfactomedin 4 (OLFM4) (natural protein)
chain: not shown
modifications: highly glycosylated (sites not given); intermolecular disulphide bonds (cysteines not given)
notes: Olfactomedin 4, human, native protein from specific granules of neutrophils; 72 kD under reducing conditions; Multimer of unstated size; also called hGC-1; GW112
  binding result: binds
